# Laboratory results from US20250197514A1 (INTERVET, published 2025).
# Substitutions are numbered along the chain they refer to. Names and notes keep the numbering of the source.
# B1: cIL-13Ra2-Fc (unsubstituted canine IL-13Rα2 ECD - cIgG-B hinge - cIgG-B Fc fusion protein) (Fc fusion)
# chain: SMLSNAEIKVNPPQDFEIVDPGYLGYLSLQWQPPLFPDNFKECTIEYELKYRNIDSENWKTIITKNLHYKDGFDLNKGIEAKINTLLPAQCTNGSEVRSSWAETTYWTSPQGNRETKIQDMDCVYYNWQYLVCSWKPGMGVHFDTNYQLFYWYEGLDHSAECTDYIKVNGKNMGCRFPYLESSDYKDFYICVNGSSESQPIRPSYFIFQLQNIVKPMPPDYLSLTVKNSEEINLKWNMPKGPIPAKCFIYEIEFTEDGTTWVTTTVENEIQITRTSNESQKLCFLVRSKVNIYCSDDGIWSEWSDEQCWKGDIWKETPKRENGRVPRPPDCPKCPAPEMLGGPSVFIFPPKPKDTLLIARTPEVTCVVVDLDPEDPEVQISWFVDGKQMQTAKTQPREEQFNGTYRVVSVLPIGHQDWLKGKQFTCKVNNKALPSPIERTISKARGQAHQPSVYVLPPSREELSKNTVSLTCLIKDFFPPDIDVEWQSNGQQEPESKYRTTPPQLDEDGSYFLYSKLSVDKSRWQRGDTFICAVMHEALHNHYTQESLSHSPGK
# notes: also called cIL-13Rα2-cIgGB-Fc; substitution: None
# B2: cIL-13Rα2-cIgGB-Fc-F (Fc fusion)
# chain: B1 chain with N541F
# notes: also called cIL-13Ra2-cIgGB-Fc-F; N434F
# B3: cIL-13Rα2-cIgGB-Fc-Y (Fc fusion)
# chain: B1 chain with N541Y
# notes: Made in ExpiCHO, Protein A purified; also called cIL-13Ra2-cIgGB-Fc-Y; N434Y
# B4: cIL-13Rα2-cIgGB-Fc-LY (Fc fusion)
# chain: B1 chain with H540L, N541Y
# notes: also called cIL-13Ra2-cIgGB-Fc-LY; H433L/N434Y
# B5: cIL-13Ra2-Fc-YTE (Fc fusion)
# chain: B1 chain with L357Y, A359T, T361E
# notes: also called L252Y/A254T/T256E
# B6: cIL-13Rα2-cIgGB-Fc-LFT (Fc fusion)
# chain: B1 chain with H540L, N541F, Y543T
# notes: also called cIL-13Ra2-cIgGB-Fc-LFT; H433L/N434F/Y436T
# B7: cIL-13Rα2-cIgGB-Fc-PY (Fc fusion)
# chain: B1 chain with I413P, N541Y
# notes: also called cIL-13Ra2-cIgGB-Fc-PY; I308P/N434Y
# B8: cIL-13Rα2-cIgGB-Fc-L (Fc fusion)
# chain: B1 chain with H540L
# notes: also called cIL-13Ra2-cIgGB-Fc-L; H433L
# B9: cIL-13Rα2-cIgGB-Fc-LF (Fc fusion)
# chain: B1 chain with H540L, N541F
# notes: also called cIL-13Ra2-cIgGB-Fc-LF; H433L/N434F
# B10: cIL-13Rα2-cIgGB-Fc-KF (Fc fusion)
# chain: B1 chain with H540K, N541F
# notes: also called cIL-13Ra2-cIgGB-Fc-KF; H433K/N434F
# B11: cIL-13Rα2-cIgGB-Fc-LYT (Fc fusion)
# chain: B1 chain with H540L, N541Y, Y543T
# notes: also called cIL-13Ra2-cIgGB-Fc-LYT; H433L/N434Y/Y436T
# B12: cIL-13Rα2-cIgGB-Fc-K (Fc fusion)
# chain: B1 chain with H540K
# notes: also called cIL-13Ra2-cIgGB-Fc-K; H433K
# B13: cIL-13Rα2-cIgGB-Fc-DPY (Fc fusion)
# chain: B1 chain with T361D, I413P, N541Y
# notes: also called cIL-13Ra2-cIgGB-Fc-DPY; T256D/I308P/N434Y
# B14: cIL-13Rα2-cIgGB-Fc-DY (Fc fusion)
# chain: B1 chain with T361D, N541Y
# notes: also called cIL-13Ra2-cIgGB-Fc-DY; T256D/N434Y
# B15: cIL-13Rα2-cIgGB-Fc-T (Fc fusion)
# chain: B1 chain with Y543T
# notes: also called cIL-13Ra2-cIgGB-Fc-T; Y436T
# B16: cIL-13Rα2-cIgGB-Fc-YT (Fc fusion)
# chain: B1 chain with N541Y, Y543T
# notes: also called cIL-13Ra2-cIgGB-Fc-YT; N434Y/Y436T
# B17: cIL-13Rα2-cIgGB-Fc-KYT (Fc fusion)
# chain: B1 chain with H540K, N541Y, Y543T
# notes: also called cIL-13Ra2-cIgGB-Fc-KYT; H433K/N434Y/Y436T
# B18: cIL-13Rα2-cIgGB-Fc-KY (Fc fusion)
# chain: B1 chain with H540K, N541Y
# notes: also called cIL-13Ra2-cIgGB-Fc-KY; H433K/N434Y
# B19: cIL-13Rα2-cIgGB-Fc-KFT (Fc fusion)
# chain: B1 chain with H540K, N541F, Y543T
# notes: also called cIL-13Ra2-cIgGB-Fc-KFT; H433K/N434F/Y436T
# B20: c218D9-H4L3-cIgGBm-YD (antibody)
# heavy: EVTLQESGPGLVKPSQTLSLTCSFSGFSLSTFGRGVGWIRQRPGRGLEWMGHIWWDDDKYYNPALKSRLSITKDTAKNQVFLQLSSMTTEDTAVYYCARIAGGLRRAPYAMDSWGQGTLVTVSSASTTAPSVFPLAPSCGSTSGSTVALACLVSGYFPEPVTVSWNSGSLTSGVHTFPSVLQSSGLYSLSSMVTVPSSRWPSETFTCNVAHPASKTKVDKPVPKRENGRVPRPPDCPKCPAPEMLGGPSVFIFPPKPKDTLYIARDPEVTCVVVALDPEDPEVQISWFVDGKQMQTAKTQPREEQFAGTYRVVSVLPIGHQDWLKGKQFTCKVNNKALPSPIERTISKARGQAHQPSVYVLPPSREELSKNTVSLTCLIKDFFPPDIDVEWQSNGQQEPESKYRTTPPQLDEDGSYFLYSKLSVDKSRWQRGDTFICAVMHEALHNHYTQESLSHSPGK
# light: DIVMTQTPLSLSVSPGETASISCRASENIYSSLAWFRQKPGQSPQLLVYAATNLADGVPDRFSGSGSGTDYTLRISRVEADDTGVYYCQHFRDTPPTFGQGTKLEIKRNDAQPAVYLFQPSPDQLHTGSASVVCLLNSFYPKDINVKWKVDGVIQDTGIQESVTEQDKDSTYSLSSTLTMSSTEYLSHELYSCEITHKSLPSTLIKSFQRSECQRVD
# notes: also called c218D9VH4-cIgGBm-YD; L252Y/T256D
# Target: T1, canine FcRn heterodimer (FCGRT large subunit p51 + beta-2-microglobulin), biotin-labeled (Canis lupus familiaris; Canis familiaris, biotin-labeled (site not stated; the chain carries an AviTag))
# T1 construct: also called FcRn/B2M; FcRn/β2M; not shown: AviTag, named only
# T1 chain (part 1 of 2): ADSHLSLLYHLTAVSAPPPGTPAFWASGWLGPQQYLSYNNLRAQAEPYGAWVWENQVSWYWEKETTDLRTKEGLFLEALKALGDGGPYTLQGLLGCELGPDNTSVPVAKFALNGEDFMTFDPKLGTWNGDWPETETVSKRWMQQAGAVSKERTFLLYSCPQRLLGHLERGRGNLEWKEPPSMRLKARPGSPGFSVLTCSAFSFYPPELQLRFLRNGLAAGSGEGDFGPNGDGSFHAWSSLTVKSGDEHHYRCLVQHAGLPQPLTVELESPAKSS
# T1 chain (part 2 of 2): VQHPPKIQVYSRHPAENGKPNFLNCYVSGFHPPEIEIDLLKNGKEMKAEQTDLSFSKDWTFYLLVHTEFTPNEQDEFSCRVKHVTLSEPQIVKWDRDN
# Test: BLI (Octet HTX), biotinylated FcRn/B2M on streptavidin biosensors, analyte 500-7.8 nM, pH 6.0, 1:1 fit
# Method: (§1) The binding of antibodies and IgG Fc fusion proteins to FcRn proteins was determined by Octet™ HTX using Streptavidin (SA) biosensors. First, biotin-labeled […] was loaded onto pre-hydrated SA biosensors for 60 s at a concentration of 10 μg/mL. Second, the biosensors were placed into pH 6.0 TBS/Casein buffer for the blocking phase for 180 s. Third, for the association phase, FcRn/B2M loaded biosensors were placed into 2-fold serial dilutions from 500 nM down to 7.8 nM of antibody or IgG Fc fusion protein in pH 6.0 or 7.4 TBS/Casein buffer for 15 s. Finally, the biosensors were placed into either pH 6.0 or pH 7.4 TBS/Casein buffer for the dissociation phase for 60 s. Analysis was performed using Octet Data Analysis 12.0 software and curves were fitted using a 1:1 binding model.
row,Kd,Binder
1,16.9 nM,B1
2,0.93 nM,B2
3,0.11 nM,B3
4,2.35 nM,B4
5,6.59 nM,B5
6,2.87 nM,B6
7,0.3 nM,B7
8,12.3 nM,B8
9,2.27 nM,B9
10,0.97 nM,B10
11,3.32 nM,B11
12,7.55 nM,B12
13,0.34 nM,B13
14,0.87 nM,B14
15,5.95 nM,B15
16,1.39 nM,B16
17,2.58 nM,B17

# Target: T1, canine FcRn heterodimer (FCGRT large …)
# Test: BLI (Octet HTX), biotinylated FcRn/B2M on streptavidin biosensors, analyte 500-7.8 nM, pH 7.4, 1:1 fit
# Method: as §1
row,Kd,Binder
1,7020 nM,B1
2,229 nM,B2
3,187 nM,B3
4,298 nM,B4
5,363 nM,B5
6,905 nM,B6
7,20.4 nM,B7
8,7210 nM,B8
9,226 nM,B9
10,414 nM,B10
11,127 nM,B11
12,626 nM,B12
13,19.8 nM,B13
14,91.8 nM,B14
15,296 nM,B18
16,136 nM,B19
17,6120 nM,B15
18,233 nM,B16
19,253 nM,B17

# Target: T1, canine FcRn heterodimer (FCGRT large …)
# Test: BLI (Octet HTX), biotinylated FcRn/B2M on streptavidin biosensors, analyte 500-7.8 nM, pH 6.0, 1:1 fit; pH 6.0
# Method: as §1
row,Kd,Binder
1,0.00046 nM,B18
2,931 nM,B19

# Target: T1, canine FcRn heterodimer (FCGRT large …)
# Test: BLI (Octet HTX), biotinylated FcRn/B2M on streptavidin biosensors, analyte 500-7.8 nM, pH 7.4, 1:1 fit; pH 7.4
# Method: as §1
row,Kd,Binder
1,105 nM,B20
